# Data from publication PMC7542363.
# B1: fetuin (alpha-2-HS-glycoprotein): asialofetuin (protein)
# parent chain: MKSFVLLFCLAQLWGCHSIPLDPVAGYKEPACDDPDTEQAALAAVDYINKHLPRGYKHTLNQIDSVKVWPRRPTGEVYDIEIDTLETTCHVLDPTPLANCSVRQQTQHAVEGDCDIHVLKQDGQFSVLFTKCDSSPDSAEDVRKLCPDCPLLAPLNDSRVVHAVEVALATFNAESNGSYLQLVEISRAQFVPLPVSVSVEFAVAATDCIAKEVVDPTKCNLLAEKQYGFCKGSVIQKALGGEDVRVTCTLFQTQPVIPQPQPDGAEAEAPSAVPDAAGPTPSAAGPPVASVVVGPSVVAVPLPLHRAHYDLRHTFSGVASVESSSGEAFHVGKTPIVGQPSIPGGPVRLCPGRIRYFKI
# Assay: overnight CpaA digestion, SDS-PAGE
# Conditions: glycan changed form; control: untreated fetuin
protein,measurement,value
B1,other: proteolytic processing,no change
